In patent US20180369425A1, “LINKED AND OTHER pH-TRIGGERED COMPOUNDS” (priority 2017, published 2018):
Residues, ends and D or L forms follow the SMILES beside them. *: point of attachment. X1 = CC1(C)C(/C=C/C=C/C=C/C=C2/N(CCCCCC(=O)NCCN3C(=O)CC(*)C3=O)c3ccc4ccccc4c3C2(C)C)=[N+](CCCCS(=O)(=O)[O-])c2ccc3ccccc3c21

How the values were obtained:
[1] = test system: 4T1 tumor; assay: Ex vivo NIRF imaging of organs (biodistribution and kinetics of ICG-pHLIP); format: in vivo, mouse; settings: for Fluorescence intensity, Muscle / Fluorescence intensity, Pancreas / Fluorescence intensity, S. Intest. / Fluorescence intensity, Skin / Fluorescence intensity, Spleen / Fluorescence intensity, Stomach / Fluorescence intensity, Tumor / Fluorescence intensity, Bone / Fluorescence intensity, Brain / Fluorescence intensity, Heart / Fluorescence intensity, Kidneys / Fluorescence intensity, L. Intest. / Fluorescence intensity, Liver / Fluorescence intensity, Lungs: mean ± St. D., 5 animals
Experimental: BALB/cAcNHsd mice ranging in age from 5 to 6 weeks obtained from Envigo RMS Inc were used in the study. Mouse mammary 4T1 cancer cells were subcutaneously implanted in the right flank (8×10^5 cells/0.1 mL/flank) of adult female mice. Triple negative 4T1 tumor model closely mimics stage IV of human breast cancer. When tumors reached 5-6 mm in diameter, single tail vein injections of 2.5 nmol (or 0.5 mg/kg) of ICG-pHLIP in sterile PBS with 5% DMSO or 5% Ethanol (volume of the injection was 100 μl) were performed. The whole body and ex vivo imaging was performed using a Stryker 1588 AIM clinical imaging system with L10 AIM Light Source, 1588 AIM Camera using a 10 mm or 5 mm scope.
Animals were euthanized at time points: 5 min, 1 hr, 2 hrs, 4 hrs, 6 hrs, 16 hrs, 26 hrs and 48 hrs. […] 100 μl of blood was collected immediately after euthanasia and mixed with 12.5 μl of citrate-dextrose anticoagulant solution (kept at 4° C.), and necropsy was performed. Tumor, muscles, skin, heart, lungs, liver, spleen, kidneys, brain, pancreas, bone, stomach, small and large intestines were collected, imaged immediately after collection, weighed, and fast frozen in liquid nitrogen.
The ex vivo imaging of organs was performed using a Stryker 1588 AIM clinical imaging system with L10 AIM Light Source, 1588 AIM Camera using a 10 mm scope. The lens was spaced 4.3 cm away from the surface of the organs within an enclosed (light protected) area. The NIRF imaging of each organ was performed at three different laser intensities set on a hexadecimal scale as 0B-22 (low), 12-5C (medium), and 20-3A (high). The digital images of organs were processed using program written in Python to determine the average level of intensity recorded in the green channel. Since organs were imaged in the dark on black mats, the background signal was determined by introducing an intensity threshold. All the pixels with intensity from the green channel above the set threshold were counted and the average green intensity per pixel was calculated. Thus, the mean intensity per organ (Table 17a) and averaged over organs from 5 animals (Table 17b) was calculated.

[2] = test system: Human mammary epithelial cells (HMEpC); assay: Cytotoxicity of ICG-pHLIP; format: cell-based; settings: 0.125 to 16 μM, 48 and 72 hours
Experimental: Human mammary epithelial cells (HMEpC) were acquired from Cell Applications Inc, and authenticated, and stored according to supplier's instructions. Cells were cultured in mammary epithelial cell growth medium provided by Cell Applications Inc. HMEpC cells were loaded in the wells of 96-well plates (˜6,000 cells per well) and incubated overnight. The increasing amounts of ICG-pHLIP dissolved in cell growth medium were added to cells to have the following final concentration of ICG-pHLIP with cells: 0.125, 0.25, 0.5, 1, 2, 4, 8 and 16 μM. After 48 and 72 hours of incubation, a colorimetric reagent (CellTiter 96 AQueous One Solution Assay, Promega) was added for 1 hour followed by measuring absorbance at 490 nm to assess cell viability. All samples were prepared in triplicate and each experiment was repeated several times.

CC(C)C[C@H](NC(=O)[C@H](Cc1ccc(O)cc1)NC(=O)[C@H](C)NC(=O)[C@H](CCCNC(=N)N)NC(=O)[C@H](Cc1c[nH]c2ccccc12)NC(=O)[C@@H]1CCCN1C(=O)[C@H](CC(N)=O)NC(=O)[C@H](CCC(N)=O)NC(=O)[C@H](CC(=O)O)NC(=O)[C@H](CC(=O)O)NC(=O)[C@H](CSC1CC(=O)N(CCNC(=O)CCCCCN2/C(=C/C=C/C=C/C=C/C3=[N+](CCCCS(=O)(=O)[O-])c4ccc5ccccc5c4C3(C)C)C(C)(C)c3c2ccc2ccccc32)C1=O)NC(=O)[C@H](C)N)C(=O)N[C@@H](CC(=O)O)C(=O)N[C@@H](CC(C)C)C(=O)N[C@@H](CC(C)C)C(=O)N[C@@H](Cc1ccccc1)C(=O)N1CCC[C@H]1C(=O)N[C@H](C(=O)N[C@@H](CC(=O)O)C(=O)N[C@H](C(=O)N[C@@H](CC(C)C)C(=O)N[C@@H](CC(C)C)C(=O)N[C@@H](CC(C)C)C(=O)N[C@@H](CC(=O)O)C(=O)N[C@@H](CC(C)C)C(=O)N[C@@H](CC(C)C)C(=O)N[C@@H](Cc1c[nH]c2ccccc12)C(=O)N[C@@H](C)C(=O)O)[C@@H](C)O)[C@@H](C)O (stereo partly drawn) [ICG-pHLIP] (H-AC(X1)DDQNPWRAYLDLLFPTDTLLLDLLWA-OH)
Fluorescence intensity, Muscle ([1]; 4 hours p.i.): 26.2 ± 24.6 a.u.
Fluorescence intensity, Pancreas ([1]; 4 hours p.i.): 92.0 ± 2.5 a.u.
Fluorescence intensity, S. Intest. ([1]; 4 hours p.i.): 64.9 ± 16.3 a.u.
Fluorescence intensity, Skin ([1]; 4 hours p.i.): 48.2 ± 11.6 a.u.
Fluorescence intensity, Spleen ([1]; 4 hours p.i.): 150.9 ± 11.4 a.u.
Fluorescence intensity, Stomach ([1]; 4 hours p.i.): 108.4 ± 6.5 a.u.
Fluorescence intensity, Tumor ([1]; 4 hours p.i.): 211.2 ± 15.7 a.u.
Fluorescence intensity, Bone ([1]; 6 hours p.i.): 66.7 ± 16.0 a.u.
Fluorescence intensity, Brain ([1]; 6 hours p.i.): 55.3 ± 11.0 a.u.
Fluorescence intensity, Heart ([1]; 6 hours p.i.): 163.0 ± 8.2 a.u.
Fluorescence intensity, Kidneys ([1]; 6 hours p.i.): 174.0 ± 5.0 a.u.
Fluorescence intensity, L. Intest. ([1]; 6 hours p.i.): 27.1 ± 15.6 a.u.
Fluorescence intensity, Liver ([1]; 6 hours p.i.): 527.1 ± 44.4 a.u.
Fluorescence intensity, Lungs ([1]; 6 hours p.i.): 156.8 ± 15.9 a.u.
Fluorescence intensity, Muscle ([1]; 6 hours p.i.): 0.0 ± 0.0 a.u.
Fluorescence intensity, Pancreas ([1]; 6 hours p.i.): 82.2 ± 15.3 a.u.
Fluorescence intensity, S. Intest. ([1]; 6 hours p.i.): 54.2 ± 11.6 a.u.
Fluorescence intensity, Skin ([1]; 6 hours p.i.): 47.1 ± 13.6 a.u.
Fluorescence intensity, Spleen ([1]; 6 hours p.i.): 148.1 ± 13.4 a.u.
Fluorescence intensity, Stomach ([1]; 6 hours p.i.): 126.8 ± 9.9 a.u.
Fluorescence intensity, Tumor ([1]; 6 hours p.i.): 198.6 ± 33.0 a.u.
Fluorescence intensity, Bone ([1]; 16 hours p.i.): 66.2 ± 8.5 a.u.
Fluorescence intensity, Brain ([1]; 16 hours p.i.): 35.3 ± 1.8 a.u.
Fluorescence intensity, Heart ([1]; 16 hours p.i.): 129.2 ± 15.7 a.u.
Fluorescence intensity, Kidneys ([1]; 16 hours p.i.): 170.6 ± 12.8 a.u.
Fluorescence intensity, L. Intest. ([1]; 16 hours p.i.): 40.5 ± 4.0 a.u.
Fluorescence intensity, Liver ([1]; 16 hours p.i.): 400.5 ± 34.1 a.u.
Fluorescence intensity, Lungs ([1]; 16 hours p.i.): 141.3 ± 21.5 a.u.
Fluorescence intensity, Muscle ([1]; 16 hours p.i.): 0.0 ± 0.0 a.u.
Fluorescence intensity, Pancreas ([1]; 16 hours p.i.): 70.3 ± 30.0 a.u.
Fluorescence intensity, S. Intest. ([1]; 16 hours p.i.): 83.8 ± 13.6 a.u.
Fluorescence intensity, Skin ([1]; 16 hours p.i.): 76.7 ± 20.4 a.u.
Fluorescence intensity, Spleen ([1]; 16 hours p.i.): 116.3 ± 25.0 a.u.
Fluorescence intensity, Stomach ([1]; 16 hours p.i.): 117.3 ± 33.1 a.u.
Fluorescence intensity, Tumor ([1]; 16 hours p.i.): 222.8 ± 11.0 a.u.
Fluorescence intensity, Bone ([1]; 26 hours p.i.): 42.8 ± 6.4 a.u.
Fluorescence intensity, Brain ([1]; 26 hours p.i.): 0.0 ± 0.0 a.u.
Fluorescence intensity, Heart ([1]; 26 hours p.i.): 61.3 ± 6.6 a.u.
Fluorescence intensity, Kidneys ([1]; 26 hours p.i.): 111.8 ± 7.9 a.u.
Fluorescence intensity, L. Intest. ([1]; 26 hours p.i.): 0.0 ± 0.0 a.u.
Fluorescence intensity, Liver ([1]; 26 hours p.i.): 213.1 ± 9.7 a.u.
Fluorescence intensity, Lungs ([1]; 26 hours p.i.): 64.2 ± 13.9 a.u.
Fluorescence intensity, Muscle ([1]; 26 hours p.i.): 8.6 ± 19.2 a.u.
Fluorescence intensity, Pancreas ([1]; 26 hours p.i.): 30.9 ± 17.9 a.u.
Fluorescence intensity, S. Intest. ([1]; 26 hours p.i.): 37.8 ± 4.7 a.u.
Fluorescence intensity, Skin ([1]; 26 hours p.i.): 25.1 ± 24.8 a.u.
Fluorescence intensity, Spleen ([1]; 26 hours p.i.): 48.0 ± 7.7 a.u.
Fluorescence intensity, Stomach ([1]; 26 hours p.i.): 59.1 ± 13.4 a.u.
Fluorescence intensity, Tumor ([1]; 26 hours p.i.): 182.6 ± 14.7 a.u.
time of maximum signal in liver ([1]; p.i.): 1 h
cytotoxic effect [2]: did not show any cytotoxic effect
